Where no end group is shown, it is not given here. Cy5 = Cy5 fluorophore
Tests used:
Test in all cases: fluorescence polarisation
[1] = biological target: LC3A(1-120) (human, UniProt Q9H492 1-120)
[2] = biological target: LC3B(1-120) (human, UniProt Q9GZQ8 1-120)
[3] = biological target: […]2(1-117) (human, UniProt P60520 1-117)
[4] = biological target: GABARAP(1-116) (human, UniProt O95166 1-116)
[5] = biological target: LC3C(1-126) (human, UniProt Q9BXW4 1-126)
[6] = biological target: […]1(1-117) (human, UniProt Q9H0R8 1-117)

Measured: binding result

SDNSSGGDDDWTHLSSK-Cy5 [p62-LIR peptide linked to a Cy5 fluorophore]
binds: [1] | [2] | [3] | [4] | [5] | [6]

From publication doi:10.1101/2023.10.05.560930 (bioRxiv, 2023)
